Test results from publication PMC6375885, “Specific Inhibition of Soluble γc Receptor Attenuates Collagen-Induced Arthritis by Modulating the Inflammatory T Cell Responses” (Frontiers in Immunology, 2019).

Target: the molecule itself
Test: immunoprecipitation, non-reducing SDS-PAGE and immunoblot; culture supernatant of transfected HEK293T cells precipitated with α-mouse IL-2Rγ antibody and protein A/G agarose; resolved under non-reducing conditions (DTT-); blotted with biotinylated α-mouse IL-2Rγ antibody; dimer and monomer bands

B1: soluble common gamma chain (sγc), wild type (natural protein)
chain: WSSKVLMSSANEDIKADLILTSTAPEHLSAPTLPLPEVQCFVFNIEYMNCTWNSSSEPQATNLTLHYRYKVSDNNTFQECSHYLFSKEITSGCQIQKEDIQLYQTFVVQLQDPQKPQRRAVQKLNLQNLVIPRAPENLTLSNLSESQLELRWKSRHIKERCLQYLVQYRSNRDRSWTELIVNHEPRFSLPSVDELKRYTFRVRSRYNPICGSSQQWSKWSQPVHWGSHTVEECLQFPPSRI
notes: signal peptide in the construct; common gamma chain (γc, IL-2Rγ), the part before the new C-terminal 9 a.a. of the alternatively spliced soluble form; not part of the membrane form of γc; Secreted; found as a disulfide-linked dimer and as a monomer in the supernatant; The reverse primer has no stop codon, so a C-terminal tag from the vector may follow (surmise; also called WT sγc; soluble γc; …)
stoichiometry N: 2
